Reference: article PMC9374677 (2022)

Target: T1, MBP-TNFR1^ECD deletion mutant ΔCRD1 (human, UniProt P19438 22-211)
T1 chain: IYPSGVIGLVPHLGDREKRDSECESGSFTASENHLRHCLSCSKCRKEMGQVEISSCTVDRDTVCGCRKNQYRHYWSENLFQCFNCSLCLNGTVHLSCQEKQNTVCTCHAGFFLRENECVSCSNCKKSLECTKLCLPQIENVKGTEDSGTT
Test: ITC

B1: Staphylococcal superantigen-like protein 10 (SSL10), residues 31-227, C-terminal 6xHis (natural protein)
chain: KQNQKSVNKHDKEALYRYYTGKTMEMKNISALKHGKNNLRFKFRGIKIQVLLPGNDKSKFQQRSYEGLDVFFVQEKRDKHDIFYTVGGVIQNNKTSGVVSAPILNISKEKGEDAFVKGYPYYIKKEKITLKELDYKLRKHLIEKYGLYKTISKDGRVKISLKDGSFYNLDLRSKLKFKYMGEVIESKQIKDIEVNLK
- Kd: 11.1 µM
